B1: CPEB3 Ribozyme (parent)
chain: GGGGGCCACAGCAGAAGCGUUCACGUCGCGGCCCCUGUCAGAUUCUGGUGAAUCUGCGAAUUCUGCUGU

Variants of: B1
Assay: self-cleavage, relative activity (ratio to wild type); higher = more cleavage; co-transcriptional

Variant	self-cleavage
GGGGGCCACAGGAGACGCGUUCACGUCGCGGCCCCUGUCAGAUUCUGGUGAAUCUGCGAAUUCUGCUGU [C12G A16C]	0.177
GGGGGCCACAGGAGAUGCGUUCACGUCGCGGCCCCUGUCAGAUUCUGGUGAAUCUGCGAAUUCUGCUGU [C12G A16U]	0.486
GGGGGCCACAGGAGAAGCGUUCCCGUCGCGGCCCCUGUCAGAUUCUGGUGAAUCUGCGAAUUCUGCUGU [C12G A23C]	0.628
GGGGGCCACAGGAGAAGCGUUCGCGUCGCGGCCCCUGUCAGAUUCUGGUGAAUCUGCGAAUUCUGCUGU [C12G A23G]	0.721
GGGGGCCACAGGAGAAGCGUUCUCGUCGCGGCCCCUGUCAGAUUCUGGUGAAUCUGCGAAUUCUGCUGU [C12G A23U]	0.55
GGGGGCCACAGGAGAAGCGUUCACGUCGCGGCCCCUGUCCGAUUCUGGUGAAUCUGCGAAUUCUGCUGU [C12G A40C]	0.318
GGGGGCCACAGGAGAAGCGUUCACGUCGCGGCCCCUGUCAGAUUCUGGUGUAUCUGCGAAUUCUGCUGU [C12G A51U]	0.854
GGGGGCCACAGGAGAAGCGUUCACGUCGCGGCCCCUGUCAGAUUCUGGUGAAUCUGCGUAUUCUGCUGU [C12G A59U]	0.4
GGGGGCCACAGGAGAAGCGUUCACGUCGCGGCCCCUGUCAGAUUCUGGUGAAUCUGCGAUUUCUGCUGU [C12G A60U]	0.367
GGGGGCCACAGGAGAAGCGUUAACGUCGCGGCCCCUGUCAGAUUCUGGUGAAUCUGCGAAUUCUGCUGU [C12G C22A]	0.164
GGGGGCCACAGGAGAAGCGUUGACGUCGCGGCCCCUGUCAGAUUCUGGUGAAUCUGCGAAUUCUGCUGU [C12G C22G]	0.208
GGGGGCCACAGGAGAAGCGUUCAAGUCGCGGCCCCUGUCAGAUUCUGGUGAAUCUGCGAAUUCUGCUGU [C12G C24A]	0.374
GGGGGCCACAGGAGAAGCGUUCAGGUCGCGGCCCCUGUCAGAUUCUGGUGAAUCUGCGAAUUCUGCUGU [C12G C24G]	0.199
GGGGGCCACAGGAGAAGCGUUCAUGUCGCGGCCCCUGUCAGAUUCUGGUGAAUCUGCGAAUUCUGCUGU [C12G C24U]	0.435
GGGGGCCACAGGAGAAGCGUUCACGUGGCGGCCCCUGUCAGAUUCUGGUGAAUCUGCGAAUUCUGCUGU [C12G C27G]	0.1
GGGGGCCACAGGAGAAGCGUUCACGUCGGGGCCCCUGUCAGAUUCUGGUGAAUCUGCGAAUUCUGCUGU [C12G C29G]	0.152
GGGGGCCACAGGAGAAGCGUUCACGUCGCGGCUCCUGUCAGAUUCUGGUGAAUCUGCGAAUUCUGCUGU [C12G C33U]	0.405
GGGGGCCACAGGAGAAGCGUUCACGUCGCGGCCGCUGUCAGAUUCUGGUGAAUCUGCGAAUUCUGCUGU [C12G C34G]	0.69
GGGGGCCACAGGAGAAGCGUUCACGUCGCGGCCCAUGUCAGAUUCUGGUGAAUCUGCGAAUUCUGCUGU [C12G C35A]	0.326
GGGGGCCACAGGAGAAGCGUUCACGUCGCGGCCCGUGUCAGAUUCUGGUGAAUCUGCGAAUUCUGCUGU [C12G C35G]	0.369

Variant	self-cleavage
GGGGGCCACAGGAGAAGCGUUCACGUCGCGGCCCCUGUAAGAUUCUGGUGAAUCUGCGAAUUCUGCUGU [C12G C39A]	0.484
GGGGGCCACAGGAGAAGCGUUCACGUCGCGGCCCCUGUCAGAUUCUGGUGAAUGUGCGAAUUCUGCUGU [C12G C54G]	0.518
GGGGGCCACAGGAGAAGCGUUCACGUCGCGGCCCCUGUCAGAUUCUGGUGAAUCUGCGAAUUUUGCUGU [C12G C63U]	0.53
GGGGGCCACAGGAAAAGCGUUCACGUCGCGGCCCCUGUCAGAUUCUGGUGAAUCUGCGAAUUCUGCUGU [C12G G14A]	0.127
GGGGGCCACAGGACAAGCGUUCACGUCGCGGCCCCUGUCAGAUUCUGGUGAAUCUGCGAAUUCUGCUGU [C12G G14C]	0.0732
GGGGGCCACAGGAUAAGCGUUCACGUCGCGGCCCCUGUCAGAUUCUGGUGAAUCUGCGAAUUCUGCUGU [C12G G14U]	0.118
GGGGGCCACAGGAGAAUCGUUCACGUCGCGGCCCCUGUCAGAUUCUGGUGAAUCUGCGAAUUCUGCUGU [C12G G17U]	0.165
GGGGGCCACAGGAGAAGCAUUCACGUCGCGGCCCCUGUCAGAUUCUGGUGAAUCUGCGAAUUCUGCUGU [C12G G19A]	0.137
GGGGGCCACAGGAGAAGCCUUCACGUCGCGGCCCCUGUCAGAUUCUGGUGAAUCUGCGAAUUCUGCUGU [C12G G19C]	0.0934
GGGGGCCACAGGAGAAGCUUUCACGUCGCGGCCCCUGUCAGAUUCUGGUGAAUCUGCGAAUUCUGCUGU [C12G G19U]	0.0842
GGGGGCCACAGGAGAAGCGUUCACCUCGCGGCCCCUGUCAGAUUCUGGUGAAUCUGCGAAUUCUGCUGU [C12G G25C]	0.166
GGGGGCCACAGGAGAAGCGUUCACGUCUCGGCCCCUGUCAGAUUCUGGUGAAUCUGCGAAUUCUGCUGU [C12G G28U]	0.11
GGGGGCCACAGGAGAAGCGUUCACGUCGCAGCCCCUGUCAGAUUCUGGUGAAUCUGCGAAUUCUGCUGU [C12G G30A]	0.43
GGGGGCCACAGGAGAAGCGUUCACGUCGCUGCCCCUGUCAGAUUCUGGUGAAUCUGCGAAUUCUGCUGU [C12G G30U]	0.26
GGGGGCCACAGGAGAAGCGUUCACGUCGCGGCCCCUCUCAGAUUCUGGUGAAUCUGCGAAUUCUGCUGU [C12G G37C]	0.205
GGGGGCCACAGGAGAAGCGUUCACGUCGCGGCCCCUUUCAGAUUCUGGUGAAUCUGCGAAUUCUGCUGU [C12G G37U]	0.223
GGGGGCCACAGGAGAAGCGUUCACGUCGCGGCCCCUGUCACAUUCUGGUGAAUCUGCGAAUUCUGCUGU [C12G G41C]	0.416
GGGGGCCACAGGAGAAGCGUUCACGUCGCGGCCCCUGUCAUAUUCUGGUGAAUCUGCGAAUUCUGCUGU [C12G G41U]	0.377
GGGGGCCACAGGAGAAGCGUUCACGUCGCGGCCCCUGUCAGAUUCUGCUGAAUCUGCGAAUUCUGCUGU [C12G G48C]	0.949
